Measurements as given in patent US20230212239A1, “INHIBITORS OF CBL AUTOINHIBITION AND RELATED METHODS” (THE HOSPITAL FOR SICK CHILDREN, priority 2020, published 2023).
Positions count from the first letter of the chain named.

B1: Trx-His(6)-Δlinker-hSLAP2 L241R (other)
chain: EAERSKATAVALGSFPAGGPAELSLRLGEPLTIVSEDGDWWTVLSEVSGREYNIPSVHVAKVSHGWLYEGLSREKAEELLLLPGNPGGAFLIRESQTRRGSYSLSVRLSRPASWDRIRHYRIHCLDNGWLYISPRLTFPSLQALVDHYSELADDICCLLKEPCVLQRAGPLPGKDIPLPVTVQRTPLNWKELDSSLLFSEAATGEESLLSEGRRESLSFYISLNDEAVSLDDA
notes: Point mutant within Duet-His-Δlinker-hSLAP2-CBL; not shown: N-terminal thioredoxin (Trx)-His(6)-TEV-site tag and linker of the modified pET32a (Δlinker version)
B2: Trx-His(6)-Δlinker-hSLAP2 S244E (other)
chain: B1 chain with R213L, S216E
notes: as for B1

How the values were obtained:
CBL (47-357) A223R = biological target: T1, CBL (47-357) A223R (UniProt P22681 47-357); test: Ni-NTA co-purification, low salt (0.15 M NaCl), Coomassie SDS-PAGE
T1 construct: range 47-357; Point mutant within Duet-His-Δlinker-hSLAP2-CBL; also called A223R (CBL mutant)
T1 sequence (looked up): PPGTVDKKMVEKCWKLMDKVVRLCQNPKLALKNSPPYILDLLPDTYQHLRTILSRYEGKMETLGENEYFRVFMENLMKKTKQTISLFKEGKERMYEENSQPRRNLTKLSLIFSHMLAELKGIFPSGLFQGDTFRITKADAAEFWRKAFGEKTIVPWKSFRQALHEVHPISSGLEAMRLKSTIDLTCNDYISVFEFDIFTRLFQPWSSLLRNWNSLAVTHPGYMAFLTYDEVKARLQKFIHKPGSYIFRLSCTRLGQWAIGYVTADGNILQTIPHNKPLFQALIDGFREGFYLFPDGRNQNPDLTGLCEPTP
Description: (§1) Cell pellets were resuspended in either high or low salt (as for high salt except 25 mM HEPEs pH 7.5, 150 mM NaCl) lysis buffer and purified as above on Ni-NTA agarose (Qiagen) with wash buffer (25 mM HEPEs pH 7.5, 150 mM NaCl, 2% glycerol, 20 mM imidazole, 10 mM βME). Bead slurry was mixed with SDS 2X loading buffer (125 mM Tris pH 6.8, 4% SDS, 20% glycerol, 0.715 M βME, bromophenol blue), boiled, and analyzed by 10 or 12.5% SDS-PAGE, stained with Coomassie blue.

[1] = biological target: T2, CBL (47-357), co-expressed from pETDuet-1 MCS2 (UniProt P22681 47-357); test: Ni-NTA co-purification from Duet co-expression, high salt (0.5 M NaCl), Coomassie SDS-PAGE
T2 construct: range 47-357; Untagged partner in the Duet co-purification trials; also called CBL TKBD
T2 sequence (looked up): T1 sequence (looked up) with R177A
Description: as §1

CBL (47-357) S226E = biological target: T3, CBL (47-357) S226E (UniProt P22681 47-357); test: Ni-NTA co-purification, low salt (0.15 M NaCl), Coomassie SDS-PAGE
T3 construct: range 47-357; Point mutant within Duet-His-Δlinker-hSLAP2-CBL; also called S226E (CBL mutant)
T3 sequence (looked up): T1 sequence (looked up) with R177A, S180E
Description: as §1

Binder | binding result (CBL (47-357) A223R) | binding result [1] | binding result (CBL (47-357) S226E)
B1 | no binding | no binding | –
B2 | – | – | no binding
